Measurements published in patent US20210340232A1, “MONOCLONAL ANTIBODIES AGAINST HUMAN DICKKOPF3 AND USES THEREOF” (Board of Regents, The University of Texas System, priority 2018, published 2021).

Key:
[1] = system: BxPC3 orthotopic tumors; test: Orthotopic BxPC3 tumors without HPSCs in nude mice; type: in vivo, mouse; details: BxPC3 alone; 5 mg/kg i.p. once every 5 days; vs PBS or isotype control mAb
Experimental: (§1) FIGS. 11A-C. DKK3 expression in autochthonous model of PDAC and effects of DKK3 mAb on cell surface binding of DKK3 and orthotopic model. (FIG. 11A) DKK3 expression was measured by qPCR in pancreatic tumors from P48-Cre; Kras LSL-G12D;Trp53fl/fl and P48-Cre; Kras LSL-G12D;Trp53fl/+ mice that are either wild type DKK3 or heterozygous or homozygous DKK3-null. Relative expression of DKK3 mRNA in DKK3+/− hetero mice is 53% of DKK3^+/+ mice. (FIG. 11B) DKK3 cell surface binding was assessed by incubating BxPC3 or L3.6p1 cells with His-tagged rhDKK3 (10 μg/ml) with or without JM6-6-1 (70 μg/ml) and positive cells were sorted by flow cytometry. (FIG. 11C) Mice bearing orthotopic BxPC3 tumors were treated with DKK3 mAb JM6-6-1 (5 mg/kg i.p. once every 5 days). Overall tumor progression was measured every 3-4 days by IVIS imaging.
An orthotopic nude mouse model of PDAC using BxPC3 cancer cells labeled with firefly luciferase (BxPC3-FL) co-injected with HPSCs has been previously described (Hwang et al., 2008). Mice received intrapancreatic injections of BxPC3-FL (1×10^6 per mouse) with HPSC-shControl or HPSC-shDKK3 in a tumor-to-stroma ratio of 1:0 or 1:3 in 50-μL of HBSS and tumor growth was monitored using IVIS imaging (Hwang et al., 2008). In addition, a syngeneic immunocompetent DKK3 null model was used, provided by Dr. C. […]

[2] = molecular target: T1, DKK3 (Homo sapiens, UniProt Q9UBP4); test: Cell surface binding of His-tagged rhDKK3 by flow cytometry; details: BxPC3 or L3.6p1 cells, rhDKK3 10 μg/ml, JM6-6-1 70 μg/ml
T1 construct: purchased R&D
Experimental: as §1
Binding assay. Cell surface binding of DKK3 was performed using flow cytometry. In brief, BxPC3 or L3.6p1 cells (0.5×10^6) were incubated for 30 min with His-labeled rhDKK3 (10 μg/mL) with or without JM6-6-1 (70 μg/mL). After washing with binding buffer (3% BSA in PBS), cells were stained with 1:100 anti-His antibody (abCam) for 30 min and followed by staining with secondary antibody conjugated with Dylight488 for 20 min. The cells were fixed with 2% paraformaldehyde and were subjected to fluorescent signal detection by BD FACSCalibur.

[3] = system: KPC cells; test: Syngeneic orthotopic model with luciferase-labeled KPC cells in C57/BL6 mice; type: in vivo, mouse
Experimental: FIGS. 6A-F. DKK3 blockade is associated with increased tumor immune infiltrates and improves response to checkpoint inhibitor therapy. (FIG. 6A) T cells were stimulated, treated with DKK3 (5-10 μg/mL) and proliferation was measured by CFSE assay. In a syngeneic orthotopic model with luciferase-labeled KPC cells, tumors were examined for CD3 and CD8 expression by IHC (FIG. 6B) and additional markers of T cell activity were measured by quantitative PCR (FIG. 6C). Mice in this model were treated with either control IgG, DKK3 mAb JM6-6-1, αCTLA4 or the combination JM6-6-1+αCTLA4 and tumor growth was measured by IVIS imaging to 25 and 190 days (FIG. 6D). Survival in this orthotopic implantation model is shown in (FIG. 6E). Using a GEMM (FIG. 6F), KPC/DKK3^+/+ (black line) or KPC/DKK3^−/− (blue line) mice were treated with αCTLA4 or control IgG and the Kaplan Meier survival curve is shown. *p<0.05, **p<0.01, ***p<0.001.
An orthotopic nude mouse model of PDAC using BxPC3 cancer cells labeled with firefly luciferase (BxPC3-FL) co-injected with HPSCs has been previously described (Hwang et al., 2008). Mice received intrapancreatic injections of BxPC3-FL (1×10^6 per mouse) with HPSC-shControl or HPSC-shDKK3 in a tumor-to-stroma ratio of 1:0 or 1:3 in 50-μL of HBSS and tumor growth was monitored using IVIS imaging (Hwang et al., 2008). In addition, a syngeneic immunocompetent DKK3 null model was used, provided by Dr. C. Niehrs (Barrantes Idel et al., 2006), that was injected with murine PDAC cells (termed “KPC cells”) isolated from tumors arising in a GEMM of PDAC (Pdx1-Cre; Kras^LSL-G12D;Trp53^R172H/+) (Hingorani et al., 2005; Hingorani et al., 2003) and labeled with luciferase.
In order to determine whether manipulation of DKK3 can affect the response to checkpoint inhibitors, mice in the syngeneic orthotopic C57/BL6 model were treated with either isotype control IgG, DKK3 mAb JM6-6-1, α-CTLA4 or the combination of JM6-6-1 with α-CTLA4. […] With additional follow-up to day 200 (FIG. 6D, right), tumors in all groups continued to grow albeit at a slower rate in the JM6-6-1 and combination JM6-6-1+α-CTLA4 groups (FIG. 6D). […] Combination treatment JM6-6-1+α-CTLA4 was associated with a highly significant improvement in survival (p=0.004) and median survival was not reached in this group (FIG. 6E). […] In the combination treatment group, 80% of mice were alive and appeared healthy at 800 days and were electively sacrificed. In the JM6-6-1 group, 20% of mice were still alive at 726 days when they were electively sacrificed.

T1 sequence (Q9UBP4 22-350): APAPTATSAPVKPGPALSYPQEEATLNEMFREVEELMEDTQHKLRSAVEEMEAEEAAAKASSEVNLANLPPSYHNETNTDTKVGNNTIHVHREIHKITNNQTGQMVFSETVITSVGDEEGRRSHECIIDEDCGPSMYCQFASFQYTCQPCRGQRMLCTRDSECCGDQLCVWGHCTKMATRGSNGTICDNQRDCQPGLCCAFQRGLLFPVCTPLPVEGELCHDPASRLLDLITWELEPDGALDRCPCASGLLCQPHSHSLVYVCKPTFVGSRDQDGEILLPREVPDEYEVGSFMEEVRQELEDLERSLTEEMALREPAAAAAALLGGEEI

B1: JM6-6-1: monoclonal antibody against human DKK3; heavy chain variable SEQ ID NO: 19, light chain variable SEQ ID NO: 20 (antibody, V domains shown)
VH: EVKLVESGGGLVKPGGSLKLSCAASGFTFTIEYMAWIRQTPEKRLEWVASISSGGDDIYYADNVKGRFTISRDNAKNTLYLQMSSLKSEDTAIYYCSRSLSDWGQGTTLTVSSAKTTPPSDYPLA
VL: MTQTPLSLPVSLGDQASISCRSSQSILHSNGHTYLEWYLQKPGQSPKLLIYKVSNRFSGVPDRFSGSGSGTDFTLKISRVEAEDLGVYYCFQGSHVPFTFGSGTKLEIERADAAQ
- tumor response without HPSCs [1]: no significant change
- blocking of rhDKK3 binding to PDAC cells [2]: effective in blocking binding of rhDKK3 to PDAC cells
- mice alive at 726 days ([3]; 726 days): 20%
- gross tumors in pancreata of remaining mice ([3]; at elective sacrifice): no gross tumors were identified
- tumor growth by luciferase signal ([3]; compared to control IgG): growth inhibition at 22 days and onward
- median survival ([3]; syngeneic orthotopic C57/BL6 model): 75 days
